Measurements reported in the supplement of paper PMC10724198.
± gives the standard deviation of the averaged measurements.

Experiments:
Saccharomyces cerevisiae [1] = experiment: protein stability index of tFT-peptide fusion (C-terminal peptide) (PSI (0-1 scale)); higher = more stable (slower turnover); details: genetic background: wild type; temperature: 30 C
Saccharomyces cerevisiae [2] = experiment: as above
Experimental: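 MPS profiling in S. cerevisiae of the tFT-X12 degron library: putative degron peptides plus stable controls, 12 aa, fused to the C-terminus of a sfGFP-mCherry timer. Cells are FACS-sorted into 8 mCherry/sfGFP bins and deep-sequenced. PSI runs from 0 (unstable) to 1 (stable). Backgrounds are wild type, das1Δ and doa10Δ at 30 °C, and wild type, das1Δ, cdc34-1 and cdc53-1 at 37 °C; 2-3 technical replicates each.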

[3] = genetic background: cdc34-1, temperature: 37 C
[4] = genetic background: cdc53-1, temperature: 37 C
[5] = genetic background: das1 deletion, temperature: 30 C
[6] = genetic background: das1 deletion, temperature: 37 C
[7] = genetic background: doa10 deletion, temperature: 30 C
[8] = genetic background: wild type, temperature: 30 C
[9] = genetic background: wild type, temperature: 37 C
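Further: PSI is a weighted mean of sequencing reads over stability bins, variants kept only with over 10 reads, mCherry proximal and sfGFP distal, peptide attached via GGGS linker.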

Sequence	protein stability index (Saccharomyces cerevisiae [1])	protein stability index (Saccharomyces cerevisiae [2]; [3])	protein stability index (Saccharomyces cerevisiae [2]; [4])	protein stability index (Saccharomyces cerevisiae [2]; [5])	protein stability index (Saccharomyces cerevisiae [2]; [6])	protein stability index (Saccharomyces cerevisiae [2]; [7])	protein stability index (Saccharomyces cerevisiae [2]; [8])	protein stability index (Saccharomyces cerevisiae [2]; [9])
MLSVVSFVSCTC	0.255 ± 0.012	0.181 ± 0.0023	0.17 ± 0.021	0.197 ± 0.017	0.29 ± 0.0063	0.1631 ± 0.0015	0.191 ± 0.027	0.237 ± 0.0063
LRCRAATSRTVS	0.504 ± 0.04	0.69 ± 0.029	0.738 ± 0.015	0.6731 ± 0.002	0.726 ± 0.03	0.391 ± 0.015	0.446 ± 0.025	0.643 ± 0.0087
VAFLYCHFFYCI	0.415 ± 0.013	0.502 ± 0.063	0.531 ± 0.013	0.391 ± 0.029	0.53095 ± 0.00027	0.342 ± 0.0038	0.37 ± 0.014	0.47 ± 0.009
VYQAFIFRMSLF	0.243 ± 0.068	0.529 ± 0.026	0.672 ± 0.0078	0.586 ± 0.019	0.695 ± 0.016	0.147 ± 0.0025	0.159 ± 0.02	0.248 ± 0.0046
FVWWFFFLSVVS	0.26 ± 0.018	0.277 ± 0.0019	0.306 ± 0.023	0.265 ± 0.032	0.3987 ± 0.0029	0.255 ± 0.016	0.216 ± 0.018	0.334 ± 0.025
CCVFFLLCLSLF	0.354 ± 0.044	0.419 ± 0.016	0.44 ± 0.024	0.341 ± 0.01	0.469 ± 0.023	0.353 ± 0.012	0.313 ± 0.0084	0.4223 ± 0.0038
VFLLCLGFLVFS	0.336 ± 0.038	0.263 ± 0.011	0.341 ± 0.046	0.258 ± 0.025	0.4083 ± 0.0018	0.241 ± 0.024	0.275 ± 0.02	0.3886 ± 0.0038
SCFDRQIFVPVC	0.442 ± 0.013	0.358 ± 0.0078	0.3925 ± 0.001	0.302 ± 0.033	0.461 ± 0.013	0.274 ± 0.0059	0.308 ± 0.032	0.4173 ± 0.0038
FAVTRVHLACWG	0.4649 ± 0.0013	0.453 ± 0.049	0.464 ± 0.0047	0.368 ± 0.033	0.493 ± 0.0079	0.3297 ± 0.0031	0.369 ± 0.03	0.466 ± 0.022
RVFRLDRRLQVV	0.3 ± 0.0059	0.55 ± 0.02	0.633 ± 0.041	0.509 ± 0.018	0.638 ± 0.012	0.128 ± 0.012	0.154 ± 0.018	0.213 ± 0.005
